Sequences and labels used below:
B1: human AQP2-TEV-GFP-His10 fusion (natural protein, UniProt P41181 1-271, looked up)
chain: MWELRSIAFSRAVFAEFLATLLFVFFGLGSALNWPQALPSVLQIAMAFGLGIGTLVQALGHISGAHINPAVTVACLVGCHVSVLRAAFYVAAQLLGAVAGAALLHEITPADIRGDLAVNALSNSTTAGQAVTVELFLTLQLVLCIFASTDERRGENPGTPALSIGFSVALGHLLGIHYTGCSMNPARSLAPAVVTGKFDDHWVFWIGPLVGAILGSLLYNYVLFPPAKSLSERLAVLKGLEPDTDWEEREVRRRQSVELHSPQSLPRGTKA
notes: Aquaporin 2, human, cDNA codon optimized for S. cerevisiae; primers run from the start codon to the last codon; also called AQP2-GFP; APQ2-GFP; not shown: TEV cleavage site, C-terminal, kept; yeGFP, C-terminal, kept; His10, C-terminal, kept
B2: human AQP9-TEV-GFP-His10 fusion (natural protein, UniProt O43315 1-295, looked up)
chain: MQPEGAEKGKSFKQRLVLKSSLAKETLSEFLGTFILIVLGCGCVAQAILSRGRFGGVITINVGFSMAVAMAIYVAGGVSGGHINPAVSLAMCLFGRMKWFKLPFYVGAQFLGAFVGAATVFGIYYDGLMSFAGGKLLIVGENATAHIFATYPAPYLSLANAFADQVVATMILLIIVFAIFDSRNLGAPRGLEPIAIGLLIIVIASSLGLNSGCAMNPARDLSPRLFTALAGWGFEVFRAGNNFWWIPVVGPLVGAVIGGLIYVLVIEIHHPEPDSVFKTEQSEDKPEKYELSVIM
notes: Aquaporin 9, human, cDNA codon optimized for S. cerevisiae; primers run from the start codon to the last codon; also called AQP9-GFP; Aquaporin 9; not shown: TEV cleavage site, C-terminal, kept; yeGFP, C-terminal, kept; His10, C-terminal, kept
B3: human AQP6-TEV-GFP-His10 fusion (natural protein, UniProt Q13520 1-282, looked up)
chain: MDAVEPGGRGWASMLACRLWKAISRALFAEFLATGLYVFFGVGSVMRWPTALPSVLQIAITFNLVTAMAVQVTWKASGAHANPAVTLAFLVGSHISLPRAVAYVAAQLVGATVGAALLYGVMPGDIRETLGINVVRNSVSTGQAVAVELLLTLQLVLCVFASTDSRQTSGSPATMIGISVALGHLIGIHFTGCSMNPARSFGPAIIIGKFTVHWVFWVGPLMGALLASLIYNFVLFPDTKTLAQRLAILTGTVEVGTGAGAGAEPLKKESQPGSGAVEMESV
notes: Aquaporin 6, human, cDNA codon optimized for S. cerevisiae; primers run from the start codon to the last codon; also called AQP6-GFP; Aquaporin 6; not shown: TEV cleavage site, C-terminal, kept; yeGFP, C-terminal, kept; His10, C-terminal, kept

This series deals with the molecule itself. The experiment in a line: SDS-PAGE (SDS-resistant oligomers); peak fractions of Ni-affinity purified, detergent solubilised AQP-TEV-GFP-His10 fusions separated by SDS-PAGE; in-gel fluorescence and Coomassie staining.
Consider B1, for which the binding result is recorded as “binds”. With B2 the entry was “binds”. Consider B3, for which the binding result is recorded as “binds”.

These data come from paper PMC5715081, “Purification and functional comparison of nine human Aquaporins produced in Saccharomyces cerevisiae for the purpose of biophysical characterization” (Scientific Reports, 2017).
